The nanobody polyreactivity screen of Harvey et al. (2022)

Assay: yeast display, Sf9 membrane polyspecificity reagent, FACS + sequencing; frameworks hold sequencing errors
Outline: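 In a synthetic yeast display library (Saccharomyces cerevisiae BJ5465), nanobody expression was induced with galactose for 36–48 hours. FACS gates were set low and high (top ~1%) using anti-HA fluorescence for expression and streptavidin fluorescence for binding of the Sf9 membrane reagent. Each polyreactivity label is drawn from the gate of origin.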

| Sequence | polyreactivity (PSR sort gate) |
| --- | --- |
| QVQLVESGGGLVQAGGSLHLSCAASGFTFDGYTMGWYRQAPGKERELVATITTGGSTYYADSVKGRFTISRDNAKNTVYLQMNSLKPEDTAVYYCAADYRGVPYIKWPKDFEYWGQGTQVTVSS | low polyreactivity |
| QVQLVESGGGLVQAGGSLHLSCAASGRIFGKYAMGWYRQAPGKEREFVAAIRSSDGNTYYADSVKGRFTISRDNAKNTVYLQMNSLKPEDTAVYYCAARGTLWTYGYWGQGTQVTVSS | high polyreactivity |
| QVQLVESGGGLVQAGGSLLLICAASGSTFYLNAMGWYRQAPGKERELVAAITGRSGSTYYADSVKVRFTISRDNAKNTVYLQMNSLKPEDTAVYYCAADYSPWRSDFDYWGQGTQVTVSS | low polyreactivity |
| QVQLVESGGGLVQAGGSLLLSCAAARIIFKYNAMGWYRQAPGKDRELVARITARGGRTNYADSVKGRFTISRDNAKHTVYLQMNSLKPEDTAVYYCAKKLRGWHTIITDYDYWGQGTQVTVSS | low polyreactivity |
| QVQLVESGGGLVQAGGSLLLSCAASGFIFAGYAMGWYRQAPGKERELVAPISKRGGTTYYADSVKGRFTISRDNAKNTVYLQMNSLKPEDTAVYYCNAKRTYRVVWASSYEYDYWGQGTQVTVSS | high polyreactivity |
| QVQLVESGGGLVQAGGSLLLSCAASGFTFRYYAMGWYRQAPGTERELVAAISSGGNTRYADSVKGRFTISRDNAKITVYLQLNSLKPEDTAVYYCARRPGAPRESYDYWGQGTQVTVSS | high polyreactivity |
| QVQLVESGGGLVQAGGSLLLSCAASGRIFDLNAMGWYRQAPGKERELVAAITNTGSTNYADSVKGRFTISRDNAKNTVYLQMNSLKPEDTAVYYCARTYWLRYYGYRDDEYDYWGQGTQVTVSS | low polyreactivity |
| QVQLVESGGGLVQAGGSLLLSCAASGRIFRSYTMGWYRQAPGKERELVAAITSYGGRTYYADSVKGRFTISRDNAKNTVYLQMNRLKPEDTAVYYCAAHLSRDKFDYWGQGTQVTVSS | low polyreactivity |
| QVQLVESGGGLVQAGGSLLLSCAASGRIFSYNAMGWYRQAPGKERELVAVISRSDTSTYYADSVKGRFTISRDNAKNTVYLQMNSLKPEDTAVYYCNADGPSYFRYSGYYYWGQGTQVTVSS | low polyreactivity |
| QVQLVESGGGLVQAGGSLLLSCAASGRIFYRYAMGWYRQAPGKERELVAAISRGGSTYYADSVKGRYTISRDNAKNTVYLQMNSLKPEDTAVYYCAKDGYWGYDYWGQGTQVTVSS | high polyreactivity |
| QVQLVESGGGLVQAGGSLLLSCAASGRTFRPYSMGWYRQAPGKERELVAAITRSGGSTYYADSVKGRFTISRDNEKNTVYLQMNSLKPEDTAVYYCAAYNTYSDTYDYWGQGTQVTVSS | low polyreactivity |
| QVQLVESGGGLVQAGGSLLLSCAASGRTLGKYAMGWYRQAPGKERELVAAISSGGGSTYYSDSVKGRFTISRDNAKNTVYLLMNSLKPEDTAVYYCAADSVSRYNGYDYWGQGTQVTVSS | high polyreactivity |
| QVQLVESGGGLVQAGGSLLLSCAASGSIFIYYTIGWYRQARGKARELVAAITRSGGDTYYADSVKGRFTISRDNAKNTVYLQMNSLKPEDTAVYYCAADSWLRYGTYEYWGQGTQVTVSS | high polyreactivity |
| QVQLVESGGGLVQAGGSLLLSCAASGSIFRYYAMGWSRQAPGKERELVAAISSNGASTYYADSVKGRFTISRDNAKNTVYLQKNSLKPEVSGVYYCAARFRRAPGYYWGQGTQVTVSS | high polyreactivity |
| QVQLVESGGGLVQAGGSLLLSCAASGSIFYRYAMGWDRQAPGKERELVAAISWNGGTTYYADSVKGRFTISRDNAKNTVYLQMNSLKPEDTAVYYCAADRPTSVYLFDYWGQGTLVTVSS | high polyreactivity |
| QVQLVESGGGLVQAGGSLLLSCAASGSIFYYYAMGWYRQAPGKERELVAAISKSGGSTYADSVKGRFTISRDNAKNTVYLQMNSLKPEDTAVYYCAKEFKYWGYPYDYWGQGTQVTVSS | low polyreactivity |
| QVQLVESGGGLVQAGGSLLLSCAASGSILRMYVMGWYRQAPGKESELVADRSDRGGSTYYADSVKGRFTISRDNAKNTVYLQMNSLKPEDTAVYYCAKDSETAGATYTEYDYWGQGTQVTVSS | low polyreactivity |
| QVQLVESGGGLVQAGGSLLLSCAASGSTFISYAMGWYRQAPGKERELVAAITWRGGSTYNADSVKGRFTISRDNAKNTVYLQMNSMKPEDTAVYYCAAEFYYYYGRYDYWGQGTQVTVSS | high polyreactivity |
| QVQLVESGGGLVQAGGSLLLSCAASGTTSLVNAMGSYRQAPGKERELVAAISWSGGSTYYADSVKGRFTISRANAKNTVFLQRNSLKPEDTAVYYCAAESYGYWEYDYWGQGTQVTLSS | high polyreactivity |
| QVQLVESGGGLVQAGGSLLLSSAASGINFGNYAMGWYRQAPGKERELVATIDSAGSPYYADSVNGRFTISRDNAKNTVYLQMNSLKPEDTAVYYCAVRFGTYGRYFGYDYWGQGTQVTVSS | high polyreactivity |
| QVQLVESGGGLVQAGGSLLLTCAASGIIFVIYAMGWYRQAPGKERELVAAITSDGSTSYADSVKGRFTISRDNAKNTVYLQMNSLKPEDTAVYYCAKDFFEHSPVSHTYSSSKYDYWGQGTQVTVSS | low polyreactivity |

| Sequence | polyreactivity (PSR sort gate) |
| --- | --- |
| QVQLVESGGGLVQAGGSLPLICAASGSTSVVNAMGWYRQAHGKERELVATIPRVGRTYYADSVKGRFTISRDNAKNTVYLQMNSLKPEDTAVYYCASRLVGRSYKYDYWGQGTQVTVSS | high polyreactivity |
| QVQLVESGGGLVQAGGSLPLSCAASGFIFYRYTMGWYRQAPGKERELVAAITRNGVSTYYADSVKGRFTISRDNAKNTVYLQMNSLKPEDTAVYYCAAQRYRTGDSWGQGTQVTVSS | high polyreactivity |
| QVQLVESGGGLVQAGGSLPLSCAASGFTFYRYTMVWYRQAPGKERELVAAISRGGRTYYADSVKGRFTISRDNAKNTDYLQMNSLKPEDTAVYYCNARYPSADDWGQGTQVTVSS | high polyreactivity |
| QVQLVESGGGLVQAGGSLPLSCAASGIIFPYNAMGWSRQAPGKERELVAAITGGGSTYYADSVKGRFTISRDNAKNTVYLPMNSLKPEDSAVYYCAADGSGPGYDYWGQGTQVTVSS | low polyreactivity |
| QVQLVESGGGLVQAGGSLPLSCAASGLIINYYVMGWYRQAPGKERELVAANTISGGRSYYADSVKVRFTISRDNAKNTVYLQMKCLNPEDTAVYYCARRFGPYRKGYQSYGIYDYWGQGTHVTVSS | high polyreactivity |
| QVQLVESGGGLVQAGGSLPLSCAASGRIFWDYDMGRYRQAHGKERELVAVITFSGDSTYYADSVKGRFTISRDNAKNTVYLQMNSLKPEDTAVYYCASARAIRQFWYVATFEYWGQGTQVTVSS | low polyreactivity |
| QVQLVESGGGLVQAGGSLPLSCAASGSTFGSYAMGWYRQAPGKERELVAAISYSGGSTYYADSVKGRFTISRDNEKNTVFLQMNSLKPEDTAVYYCATVRKYRAMDYWGQGTQVSVSS | high polyreactivity |
| QVQLVESGGGLVQAGGSLPLSCAASGSTLSGYAMGWYRQAPGKEREMVAAITKSGGRTYYADSVKGRFTISRDNAKNTVYLQMNSLKPEDTAVYYCAKAYPGTYREYDYWGQGTQVTVSS | high polyreactivity |
| QVQLVESGGGLVQAGGSLPLSCAASRRTLYTNTMGWYRQAPGKESELDAGISKRGGSTYYADSVKGRFTITRDTAKNTVYLQMNSRKPEDTAVYYCNAPVSYWSRFRSPIYEYWGQGTQVTVSS | high polyreactivity |
| QVQLVESGGGLVQAGGSLPLSCAATGRTFSYNAMGSYRQAPAKETELVAAISSGGTTNYADSVKGRFTISRDNAKNTVYLQMNSVKPDDTAVYYCNADRLVWSFTDYGFSQYDYWGQGTQVTVSS | low polyreactivity |
| QVQLVESGGGLVQAGGSLRFICAASGGISSSNAMGWYRQAHGKERELVAGINSRGGSTYADSVKGRFTISRANAKNTVYLQMNSLKPEDTAVYYCAAAPTYKWRRKNYDYWGQGTQVTVAS | high polyreactivity |
| QVQLVESGGGLVQAGGSLRFRCAASGFTFGHYAIVWYRQAPGKERELVAAISKSGTRTYYADSVKGRFTISRDNAKNTVYLQMTSLKPEDTAVYYCATTAYNGYDYWGQGTQVTVSS | high polyreactivity |
| QVQLVESGGGLVQAGGSLRFSCAASGFIFRDNAMVWYRRAPGKERELVAAISYSGGSTYYADSVKGRFTISRDNAKNTVYLQMNSVKPEDTAVYYCAASYGPKRRGYWGQGTQVTVSS | high polyreactivity |
| QVQLVESGGGLVQAGGSLRFSCAASGFTFSVYAMGWYRQAPGTEMELVAAIHWSGGSTYYADSVKGRFTISRDNAKNTVYLQMNSLKPEDTAVYYCNTLYWYTRHVVDYWGQGTQVTVSS | high polyreactivity |
| QVQLVESGGGLVQAGGSLRFSCAASGGIFWYNAMGWYRQAPGKERELVAAISASTGSTYYADSVKGRFTISRDNAKNTVYLQMNSLKPEDTAVYYCAATRYRSARYAYGHWGQGTQVTVSS | high polyreactivity |
| QVQLVESGGGLVQAGGSLRFSCAASGGTFQGNAMGWYRQAPGKEREFVATITRGGGSTYYADSVKGRFTISRDNAKNTVYLQMNSLKPEDTAVYYCNAKPSYYQRYNYWGQGTQVTVSS | high polyreactivity |
| QVQLVESGGGLVQAGGSLRFSCAASGINIWTNVMGWYIQAPRKESEFVAAISRSGGSTYYADSVKGSFTISRDNAKNTVYLQMISLKPEDTAVYYCAARWSYSVQKFDYWGQGTQLTVSS | high polyreactivity |
| QVQLVESGGGLVQAGGSLRFSCAASGRIFGGNTMGWYRQAPGKERELVATIRSGDSTYYADSVKGRFTISRDNAKNTVYLQMNSLKPEDTAVYYCGYDYWGQGTQVTVSS | low polyreactivity |
| QVQLVESGGGLVQAGGSLRFSCAASGRTFVPYAMGWYRQAPGKERELVARIDSSGGSTYYADSVKGRFTISRDNAKNTVYLQMNSLKPEDTAVYYCAAVFYYWSLRSYYWGQGTQVTVSS | high polyreactivity |
| QVQLVESGGGLVQAGGSLRFSCAASGRTIWTYVMGWYRQAPGKERELVAAISRSGSSTYYADSVKGRFTISRDNAKNTVYLQMNSLKPEDTAVYYCNKVDGTTLDDHYMDYWGQGTQVTVAS | low polyreactivity |
